Source: patent US20180291082A1 (IMMATICS BIOTECHNOLOGIES, published 2018)

Key:
[1] = target: T1, human recombinant HLA-B*08:01 (human); assay: pMHC dissociation at 37 C (b2m on heavy chain); mean half-life grade (+ >2 h, ++ >4 h, +++ >6 h, ++++ >10 h)
T1 construct: Expressed in E. coli and purified; Assay done by ImmunAware
Procedure: The peptide-MHC stability for HLA-B*08:01 peptides was performed by ImmunAware (Copenhagen, Denmark). The data were obtained using a proximity based, homogenous, real-time assay to measure the dissociation of peptides from HLA class I molecules. First human recombinant HLA-B*08:01 and b2m were expressed in E. coli and purified in a series of liquid chromatography based steps (Ferre et al., 2003; Ostergaard et al., 2001). Afterwards, the stability of a peptide-MHC complex (pMHC) can be determined by measuring the amount of b2m associated with the MHC heavy chain over time at 37° C. (Harndahl et al., 2012). The stability of each pMHC, expressed as the half life of b2m associated with the respective heavy chain, was calculated by fitting the data to a one-phase dissociation equation.

HLA-A*02:01 = target: T2, HLA-A*02:01 (human); assay: UV-ligand exchange, anti-b2m ELISA; exchange yield grade (+ >10%, ++ >20%, +++ >50, ++++ >75%)
T2 construct: Peptide-receptive MHC monomer made by UV cleavage of a UV-sensitive peptide
In short: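 UV-exchange products diluted 100-fold, captured on streptavidin-coated wells, 1 h 37 °C; HRP anti-β2m 2 ug/ml, 1 h 37 °C; TMB, A450. Standards: refolded HLA-A*02:01/MLA-001, 15-500 ng/ml. Yield = β2m signal of stabilised MHC.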

Row | Binder | mean half-life (T1/2) of peptide-MHC complex [1] | peptide exchange yield (HLA-A*02:01)
1 | RLASRPLLL |  | 50 to 75%
2 | ELMPRVYTL |  | 50 to 75%
3 | RLFGLFLNNV |  | > 75%
4 | LSYNKYLQL | 4 to 6 h | 
5 | RLWQIQHHL |  | 50 to 75%
6 | EAKRHLLQV | 4 to 6 h | 
7 | LPMLKVLNL | 2 to 4 h | 
8 | LLMTSLTES |  | 50 to 75%
9 | ALFPERITV |  | > 75%
10 | HAKEKLTAL | 6 to 10 h | 
11 | YLPPTDPRMSV |  | > 75%
12 | GLTGVIMTI |  | > 75%
13 | FLNQIYTQL |  | > 75%
14 | DLKYNALDL | 6 to 10 h | 
15 | FQKLKLLSL | 2 to 4 h | 
16 | YVKERSKAM | 6 to 10 h | 
17 | LLKAEPLAF | 4 to 6 h | 
18 | KMILKMVQL |  | 10 to 20%

Second part, the binder after the results:

Row | mean half-life (T1/2) of peptide-MHC complex [1] | peptide exchange yield (HLA-A*02:01) | Binder
19 | 4 to 6 h |  | AAMSRYEL
20 |  | 50 to 75% | ALAAELNQL
21 |  | > 75% | GLPDFVKEL
22 | 6 to 10 h |  | EPVKKSRL
23 | 4 to 6 h |  | LPFLRENDL
24 | 4 to 6 h |  | YKKLRTSSF
25 | 4 to 6 h |  | HIFLRTTL
26 | 4 to 6 h |  | NPNLKTLL
27 |  | 50 to 75% | YVSSGEMMV
28 |  | > 75% | KLHEIYIQA
